Laboratory results as given in patent US20250339531A1, “DUX4 POLYPEPTIDES AND NUCLEIC ACIDS FOR TREATING INFLAMMATORY AND AUTOIMMUNE CONDITIONS” (Fred Hutchinson Cancer Center, priority 2021, published 2025).

Test system: proteins that co-immunoprecipitated with DUX4-CTD constructs expressed in MB135 myoblasts
Assay: LC-MS of proteins co-immunoprecipitated with DUX4-CTD (Table 1) and western validation
Assay type: binding, human
Design: key to 4. mL1dL2 + Dox + IFNG / 4. + IFNG mix / 4. longCTD + Dox + IFNG / 3. + IFNg + Dox longCTD / 3. + Dox longCTD / 3. + IFNG longCTD: peptide-spectrum matches (PSMs) per protein
Settings: for 4. mL1dL2 + Dox + IFNG: LC-MS value per protein co-immunoprecipitated with DUX4-CTD construct mL1dL2 in MB135 myoblasts; for 4. mL1dL2 + Dox + IFNG / 4. + IFNG mix: kind of count not given; for 4. + IFNG mix: LC-MS value per protein co-immunoprecipitated from MB135 myoblasts, + IFNG mix sample (no Dox); for 3. + IFNg + Dox longCTD: experiment 3, IFNg + Dox; for SUM of PSMS: sum over all samples
Summary of the method: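 FLAG-tagged DUX4-CTD expressed in doxycycline-induced MB135 myoblasts, some also IFNG-treated; nuclear lysates in pH 7.4 NP-40 IP buffer were pre-cleared, then anti-FLAG immunoprecipitated 3 h at 4 °C. For LC-MS, FLAG-peptide elution, in-gel trypsin digest, Orbitrap analysis; proteins with ≥2 PSMs in both experiments categorised and ranked by total PSMs.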

B1: RNH1 (protein)
chain: SLDIQSLDIQCEELSDARWAELLPLLQQCQVVRLDDCGLTEARCKDISSALRVNPALAELNLRSNELGDVGVHCVLQGLQTPSCKIQKLSLQNCCLTGAGCGVLSSTLRTLPTLQELHLSDNLLGDAGLQLLCEGLLDPQCRLEKLQLEYCSLSAASCEPLASVLRAKPDFKELTVSNNDINEAGVRVLCQGLKDSPCQLEALKLESCGVTSDNCRDLCGIVASKASLRELALGSNKLGDVGMAELCPGLLHPSSRLRTLWIWECGITAKGCGDLCRVLRAKESLKELSLAGNELGDEGARLLCETLLEPGCQLESLWVKSCSFTAACCSHFSSVLAQNRFLLELQISNNRLEDAGVRELCQGLGQPGSVLRVLWLADCDVSDSSCSSLAATLLANHSLRELDLSNNCLGDAGILQLVESVRQPGCLLEQLVLYDIYWSEEMEDRLQALEKDKPSLRVIS
- 4. mL1dL2 + Dox + IFNG: 4

B2: KANK2 (protein)
chain: MAQVLHVPAPFPGTPGPASPPAFPAKDPDPPYSVETPYGYRLDLDFLKYVDDIEKGHTLRRVAVQRRPRLSSLPRGPGSWWTSTESLCSNASGDSRHSAYSYCGRGFYPQYGALETRGGFNPRVERTLLDARRRLEDQAATPTGLGSLTPSAAGSTASLVGVGLPPPTPRSSGLSTPVPPSAGHLAHVREQMAGALRKLRQLEEQVKLIPVLQVKLSVLQEEKRQLTVQLKSQKFLGHPTAGRGRSELCLDLPDPPEDPVALETRSVGTWVRERDLGMPDGEAALAAKVAVLETQLKKALQELQAAQARQADPQPQAWPPPDSPVRVDTVRVVEGPREVEVVASTAAGAPAQRAQSLEPYGTGLRALAMPGRPESPPVFRSQEVVETMCPVPAAATSNVHMVKKISITERSCDGAAGLPEVPAESSSSPPGSEVASLTQPEKSTGRVPTQEPTHREPTRQAASQESEEAGGTGGPPAGVRSIMKRKEEVADPTAHRRSLQFVGVNGGYESSSEDSSTAENISDNDSTENEAPEPRERVPSVAEAPQLRPAGTAAAKTSRQECQLSRESQHIPTAEGASGSNTEEEIRMELSPDLISACLALEKYLDNPNALTERELKVAYTTVLQEWLRLACRSDAHPELVRRHLVTFRAMSARLLDYVVNIADSNGNTALHYSVSHANFPVVQQLLDSGVCKVDKQNRAGYSPIMLTALATLKTQDDIETVLQLFRLGNINAKASQAGQTALMLAVSHGRVDVVKALLACEADVNVQDDDGSTALMCACEHGHKEIAGLLLAVPSCDISLTDRDGSTALMVALDAGQSEIASMLYSRMNIKCSFAPMSDDESPTSSSAEE
- 4. mL1dL2 + Dox + IFNG: 1

B3: TRIM28 (protein)
chain: AASAAAASAAAASAASGSPGPGEGSAGGEKRSTAPSAAASASASAAASSPAGGGAEALELLEHCGVCRERLRPEREPRLLPCLHSACSACLGPAAPAAANSSGDGGAAGDGTVVDCPVCKQQCFSKDIVENYFMRDSGSKAATDAQDANQCCTSCEDNAPATSYCVECSEPLCETCVEAHQRVKYTKDHTVRSTGPAKSRDGERTVYCNVHKHEPLVLFCESCDTLTCRDCQLNAHKDHQYQFLEDAVRNQRKLLASLVKRLGDKHATLQKSTKEVRSSIRQVSDVQKRVQVDVKMAILQIMKELNKRGRVLVNDAQKVTEGQQERLERQHWTMTKIQKHQEHILRFASWALESDNNTALLLSKKLIYFQLHRALKMIVDPVEPHGEMKFQWDLNAWTKSAEAFGKIVAERPGTNSTGPAPMAPPRAPGPLSKQGSGSSQPMEVQEGYGFGSGDDPYSSAEPHVSGVKRSRSGEGEVSGLMRKVPRVSLERLDLDLTADSQPPVFKVFPGSTTEDYNLIVIERGAAAAATGQPGTAPAGTPGAPPLAGMAIVKEEETEAAIGAPPTATEGPETKPVLMALAEGPGAEGPRLASPSGSTSSGLEVVAPEGTSAPGGGPGTLDDSATICRVCQKPGDLVMCNQCEFCFHLDCHLPALQDVPGEEWSCSLCHVLPDLKEEDGSLSLDGADSTGVVAKLSPANQRKCERVLLALFCHEPCRPLHQLATDSTFSLDQPGGTLDLTLIRARLQEKLSPPYSSPQEFAQDVGRMFKQFNKLTEDKADVQSIIGLQRFFETRMNEAFGDTKFSAVLVEPPPMSLPGAGLSSQELSGGPGDGP
- 4. + IFNG mix: 1
- 4. mL1dL2 + Dox + IFNG: 8

B4: NAP1L1 (protein)
chain: ADIDNKEQSELDQDLDDVEEVEEEETGEETKLKARQLTVQMMQNPQILAALQERLDGLVETPTGYIESLPRVVKRRVNALKNLQVKCAQIEAKFYEEVHDLERKYAVLYQPLFDKRFEIINAIYEPTEEECEWKPDEEDEISEELKEKAKIEDEKKDEEKEDPKGIPEFWLTVFKNVDLLSDMVQEHDEPILKHLKDIKVKFSDAGQPMSFVLEFHFEPNEYFTNEVLTKTYRMRSEPDDSDPFSFDGPEIMGCTGCQIDWKKGKNVTLKTIKKKQKHKGRGTVRTVTKTVSNDSFFNFFAPPEVPESGDLDDDAEAILAADFEIGHFLRERIIPRSVLYFTGEAIEDDDDDYDEEGEEADEEGEEEGDEENDPDYDPKKDQNPAEC
- 4. mL1dL2 + Dox + IFNG: 2

B5: Q12797 (protein, UniProt Q12797 1-758, looked up)
chain: MAQRKNAKSSGNSSSSGSGSGSTSAGSSSPGARRETKHGGHKNGRKGGLSGTSFFTWFMVIALLGVWTSVAVVWFDLVDYEEVLGKLGIYDADGDGDFDVDDAKVLLGLKERSTSEPAVPPEEAEPHTEPEEQVPVEAEPQNIEDEAKEQIQSLLHEMVHAEHVEGEDLQQEDGPTGEPQQEDDEFLMATDVDDRFETLEPEVSHEETEHSYHVEETVSQDCNQDMEEMMSEQENPDSSEPVVEDERLHHDTDDVTYQVYEEQAVYEPLENEGIEITEVTAPPEDNPVEDSQVIVEEVSIFPVEEQQEVPPETNRKTDDPEQKAKVKKKKPKLLNKFDKTIKAELDAAEKLRKRGKIEEAVNAFKELVRKYPQSPRARYGKAQCEDDLAEKRRSNEVLRGAIETYQEVASLPDVPADLLKLSLKRRSDRQQFLGHMRGSLLTLQRLVQLFPNDTSLKNDLGVGYLLIGDNDNAKKVYEEVLSVTPNDGFAKVHYGFILKAQNKIAESIPYLKEGIESGDPGTDDGRFYFHLGDAMQRVGNKEAYKWYELGHKRGHFASVWQRSLYNVNGLKAQPWWTPKETGYTELVKSLERNWKLIRDEGLAVMDKAKGLFLPEDENLREKGDWSQFTLWQQGRRNENACKGAPKTCTLLEKFPETTGCRRGQIKYSIMHPGTHVWPHTGPTNCRLRMHLGLVIPKEGCKIRCANETKTWEEGKVLIFDDSFEHEVWQDASSFRLIFIVDVWHPELTPQQRRSLPAI
modifications: full-length
- 3. + Dox longCTD (bait longCTD, experiment 3, Dox only): 1
- 3. + IFNg + Dox longCTD (bait longCTD): 9
- SUM of PSMS: 11

B6: NONO (protein, UniProt Q15233 1-471, looked up)
Non-POU domain-containing …: MQSNKTFNLEKQNHTPRKHHQHHHQQQHHQQQQQQPPPPPIPANGQQASSQNEGLTIDLKNFRKPGEKTFTQRSRLFVGNLPPDITEEEMRKLFEKYGKAGEVFIHKDKGFGFIRLETRTLAEIAKVELDNMPLRGKQLRVRFACHSASLTVRNLPQYVSNELLEEAFSVFGQVERAVVIVDDRGRPSGKGIVEFSGKPAARKALDRCSEGSFLLTTFPRPVTVEPMDQLDDEEGLPEKLVIKNQQFHKEREQPPRFAQPGSFEYEYAMRWKALIEMEKQQQDQVDRNIKEAREKLEMEMEAARHEHQVMLMRQDLMRRQEELRRMEELHNQEVQKRKQLELRQEEERRRREEEMRRQQEEMMRRQQEGFKGTFPDAREQEIRMGQMAMGGAMGINNRGAMPPAPVPAGTPAPPGPATMMPDGTLGLTPPTTERFGQAATMEGIGAIGGTPPAFNRAAPGAEFAPNKRRRY
- 4. + IFNG mix: 1

B7: CAPRIN1 (protein)
chain: PSATSHSGSGSKSSGPPPPSGSSGSEAAAGAGAAAPASQHPATGTGAVQTEAMKQILGVIDKKLRNLEKKKGKLDDYQERMNKGERLNQDQLDAVSKYQEVTNNLEFAKELQRSFMALSQDIQKTIKKTARREQLMREEAEQKRLKTVLELQYVLDKLGDDEVRTDLKQGLNGVPILSEEELSLLDEFYKLVDPERDMSLRLNEQYEHASIHLWDLLEGKEKPVCGTTYKVLKEIVERVFQSNYFDSTHNHQNGLCEEEEAASAPAVEDQVPEAEPEPAEEYTEQSEVESTEYVNRQFMAETQFTSGEKEQVDEWTVETVEVVNSLQQQPQAASPSVPEPHSLTPVAQADPLVRRQRVQDLMAQMQGPYNFIQDSMLDFENQTLDPAIVSAQPMNPTQNMDMPQLVCPPVHSESRLAQPNQVPVQPEATQVPLVSSTSEGYTASQPLYQPSHATEQRPQKEPIDQIQATISLNTDQTTASSSLPAASQPQVFQAGTSKPLHSSGINVNAAPFQSMQTVFNMNAPVPPVNEPETLKQQNQYQASYNQSFSSQPHQVEQTELQQEQLQTVVGTYHGSPDQSHQVTGNHQQPPQQNTGFPRSNQPYYNSRGVSRGGSRGARGLMNGYRGPANGFRGGYDGYRPSFSNTPNSGYTQSQFSAPRDYSGYQRDGYQQNFKRGSGQSGPRGAPRGRGGPPRPNRGMPQMNTQQVN
- 4. mL1dL2 + Dox + IFNG: 1

B8: G3BP2 (protein)
chain: VMEKPSPLLVGREFVRQYYTLLNKAPEYLHRFYGRNSSYVHGGVDASGKPQEAVYGQNDIHHKVLSLNFSECHTKIRHVDAHATLSDGVVVQVMGLLSNSGQPERKFMQTFVLAPEGSVPNKFYVHNDMFRYEDEVFGDSEPELDEESEDEVEEEQEERQPSPEPVQENANSGYYEAHPVTNGIEEPLEESSHEPEPEPESETKTEELKPQVEEKNLEELEEKSTTPPPAEPVSLPQEPPKAFSWASVTSKNLPPSGTVSSSGIPPHVKAPVSQPRVEAKPEVQSQPPRVREQRPRERPGFPPRGPRPGRGDMEQNDSDNRRIIRYPDSHQLFVGNLPHDIDENELKEFFMSFGNVVELRINTKGVGGKLPNFGFVVFDDSEPVQRILIAKPIMFRGEVRLNVEEKKTRAARERETRGGGDDRRDIRRNDRGPGGPRGIVGGGMMRDRDGRGPPPRGGMAQKLGSGRGTGQMEGRFTGQRR
- 4. mL1dL2 + Dox + IFNG: 1

B9: P50454 (protein, UniProt P50454 1-418, looked up)
chain: MRSLLLLSAFCLLEAALAAEVKKPAAAAAPGTAEKLSPKAATLAERSAGLAFSLYQAMAKDQAVENILVSPVVVASSLGLVSLGGKATTASQAKAVLSAEQLRDEEVHAGLGELLRSLSNSTARNVTWKLGSRLYGPSSVSFADDFVRSSKQHYNCEHSKINFRDKRSALQSINEWAAQTTDGKLPEVTKDVERTDGALLVNAMFFKPHWDEKFHHKMVDNRGFMVTRSYTVGVMMMHRTGLYNYYDDEKEKLQIVEMPLAHKLSSLIILMPHHVEPLERLEKLLTKEQLKIWMGKMQKKAVAISLPKGVVEVTHDLQKHLAGLGLTEAIDKNKADLSRMSGKKDLYLASVFHATAFELDTDGNPFDQDIYGREELRSPKLFYADHPFIFLVRDTQSGSLLFIGRLVRPKGDKMRDEL
modifications: full-length
- 3. + IFNg + Dox longCTD (bait longCTD): 1
- SUM of PSMS: 11
